What was measured:
HeLa Kyoto [1] = assay: thermal stability score vs G1/S (z-score of summed log2 fold changes over temperatures); higher = more thermally stable than in G1/S
HeLa Kyoto [2] = assay: solubility in G1/S (NP-40 vs SDS abundance) (log2 ratio); higher = more soluble; conditions: cell cycle stage: G1/S
HeLa Kyoto [3] = assay: solubility change mitosis vs G1/S (difference of NP-40 vs SDS log2 ratios) (log2 ratio difference); higher = more soluble in mitosis
HeLa Kyoto [4] = assay: melting temperature (median over replicates), in situ; higher = more thermally stable
[5] = cell cycle stage: early G1 (4.5 h after nocodazole release)
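Throughout, for melting temperature (median over replicates), in situ: HeLa Kyoto cells synchronized by double thymidine or nocodazole block, proteins quantified by TMT10plex mass spectrometry, three independent biological replicates.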
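Throughout, for solubility change mitosis vs G1/S (difference of NP-40 vs SDS log2 ratios): synchronized HeLa Kyoto cells (double thymidine block for G1/S, nocodazole release for mitosis), protein amounts in NP-40 versus SDS lysates quantified by mass spectrometry, three biological replicates.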
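Throughout, for solubility in G1/S (NP-40 vs SDS abundance): HeLa Kyoto cells arrested at G1/S by double thymidine block, proteins quantified by TMT10plex mass spectrometry in mild NP-40 versus SDS extracts, three biological replicates.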
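Throughout, for thermal stability score vs G1/S (z-score of summed log2 fold changes over temperatures): synchronized HeLa Kyoto cells, proteins quantified by TMT10plex mass spectrometry, three biological replicates, mitosis taken 0.5 h after nocodazole release, G1/S directly after double thymidine block.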

Sequence	thermal stability score (HeLa Kyoto [1]; [5])	thermal stability score (HeLa Kyoto [1]; cell cycle stage: mitosis)	solubility in G1/S (log2) (HeLa Kyoto [2])	solubility change mitosis (log2) (HeLa Kyoto [3])	melting temperature (HeLa Kyoto [4]; cell cycle stage: G1/S) [°C]	melting temperature (HeLa Kyoto [4]; cell cycle stage: mitosis) [°C]
MGSPLRFDGRVVLVTGAGAGLGRAYALAFAERGALVVVNDLGGDFKGVGKGSLAADKVVEEIRRRGGKAVANYDSVEEGEKVVKTALDAFGRIDVVVNNAGILRDRSFARISDEDWDIIHRVHLRGSFQVTRAAWEHMKKQKYGRIIMTSSASGIYGNFGQANYSAAKLGLLGLANSLAIEGRKSNIHCNTIAPNAGSRMTQTVMPEDLVEALKPEYVAPLVLWLCHESCEENGGLFEVGAGWIGKLRWERTLGAIVRQKNHPMTPEAVKANWKKICDFENASKPQSIQESTGSIIEVLSKIDSEGGVSANHTSRATSTATSGFAGAIGQKLPPFSYAYTELEAIMYALGVGASIKDPKDLKFIYEGSSDFSCLPTFGVIIGQKSMMGGGLAEIPGLSINFAKVLHGEQYLELYKPLPRAGKLKCEAVVADVLDKGSGVVIIMDVYSYSEKELICHNQFSLFLVGSGGFGGKRTSDKVKVAVAIPNRPPDAVLTDTTSLNQAALYRLSGDWNPLHIDPNFASLAGFDKPILHGLCTFGFSARRVLQQFADNDVSRFKAIKARFAKPVYPGQTLQTEMWKEGNRIHFQTKVQETGDIVISNAYVDLAPTSGTSAKTPSEGGKLQSTFVFEEIGRRLKDIGPEVVKKVNAVFEWHITKGGNIGAKWTIDLKSGSGKVYQGPAKGAADTTIILSDEDFMEVVLGKLDPQKAFFSGRLKARGNIMLSQKLQMILKDYAKL [HSD17B4]	0.589	0.868	0.00461	-0.0933	54.2	54.1
MGVQPPNFSWVLPGRLAGLALPRLPAHYQFLLDLGVRHLVSLTERGPPHSDSCPGLTLHRLRIPDFCPPAPDQIDRFVQIVDEANARGEAVGVHCALGFGRTGTMLACYLVKERGLAAGDAIAEIRRLRPGSIETYEQEKAVFQFYQRTK [DUSP23]	0.571	-0.468	0.00547	-0.112	52.5	52.9
MGVRGLQGFVGSTCPHICTVVNFKELAEHHRSKYPGCTPTIVVDAMCCLRYWYTPESWICGGQWREYFSALRDFVKTFTAAGIKLIFFFDGMVEQDKRDEWVKRRLKNNREISRIFHYIKSHKEQPGRNMFFIPSGLAVFTRFALKTLGQETLCSLQEADYEVASYGLQHNCLGILGEDTDYLIYDTCPYFSISELCLESLDTVMLCREKLCESLGLCVADLPLLACLLGNDIIPEGMFESFRYKCLSSYTSVKENFDKKGNIILAVSDHISKVLYLYQGEKKLEEILPLGPNKALFYKGMASYLLPGQKSPWFFQKPKGVITLDKQVISTSSDAESREEVPMCSDAESRQEVPMCTGPESRREVPVYTDSEPRQEVPMCSDPEPRQEVPTCTGPESRREVPMCSDPEPRQEVPMCTGPEARQEVPMYTDSEPRQEVPMYTDSEPRQEVPMYTGSEPRQEVPMYTGPESRQEVPMYTGPESRQEVLIRTDPESRQEIMCTGHESKQEVPICTDPISKQEDSMCTHAEINQKLPVATDFEFKLEALMCTNPEIKQEDPTNVGPEVKQQVTMVSDTEILKVARTHHVQAESYLVYNIMSSGEIECSNTLEDELDQALPSQAFIYRPIRQRVYSLLLEDCQDVTSTCLAVKEWFVYPGNPLRHPDLVRPLQMTIPGGTPSLKILWLNQEPEIQVRRLDTLLACFNLSSSREELQAVESPFQALCCLLIYLFVQVDTLCLEDLHAFIAQALCLQGKSTSQLVNLQPDYINPRAVQLGSLLVRGLTTLVLVNSACGFPWKTSDFMPWNVFDGKLFHQKYLQSEKGYAVEVLLEQNRSRLTKFHNLKAVVCKACMKENRRITGRAHWGSHHAGRWGRQGSSYHRTGSGYSRSSQGQPWRDQGPGSRQYEHDQWRRY [FAM120B]	1.29	1.3	-0.319	-0.0624	50.2	49.1
MHGRLKVKTSEEQAEAKRLEREQKLKLYQSATQAVFQKRQAGELDESVLELTSQILGANPDFATLWNCRREVLQQLETQKSPEELAALVKAELGFLESCLRVNPKSYGTWHHRCWLLGRLPEPNWTRELELCARFLEVDERNFHCWDYRRFVATQAAVPPAEELAFTDSLITRNFSNYSSWHYRSCLLPQLHPQPDSGPQGRLPEDVLLKELELVQNAFFTDPNDQSAWFYHRWLLGRADPQDALRCLHVSRDEACLTVSFSRPLLVGSRMEILLLMVDDSPLIVEWRTPDGRNRPSHVWLCDLPAASLNDQLPQHTFRVIWTAGDVQKECVLLKGRQEGWCRDSTTDEQLFRCELSVEKSTVLQSELESCKELQELEPENKWCLLTIILLMRALDPLLYEKETLQYFQTLKAVDPMRATYLDDLRSKFLLENSVLKMEYAEVRVLHLAHKDLTVLCHLEQLLLVTHLDLSHNRLRTLPPALAALRCLEVLQASDNAIESLDGVTNLPRLQELLLCNNRLQQPAVLQPLASCPRLVLLNLQGNPLCQAVGILEQLAELLPSVSSVLT [RABGGTA]	-0.496	-1.06	0.0201	-0.067	53.8	53.3
